How the values were obtained:
[1] = biological target: human Gi heterotrimer (human) (UniProt P63096)
[2] = biological target: human Gq heterotrimer (human) (UniProt P50148)
Sequence of human Gq heterotrimer (human) (P50148 whole entry, looked up, one chain of several): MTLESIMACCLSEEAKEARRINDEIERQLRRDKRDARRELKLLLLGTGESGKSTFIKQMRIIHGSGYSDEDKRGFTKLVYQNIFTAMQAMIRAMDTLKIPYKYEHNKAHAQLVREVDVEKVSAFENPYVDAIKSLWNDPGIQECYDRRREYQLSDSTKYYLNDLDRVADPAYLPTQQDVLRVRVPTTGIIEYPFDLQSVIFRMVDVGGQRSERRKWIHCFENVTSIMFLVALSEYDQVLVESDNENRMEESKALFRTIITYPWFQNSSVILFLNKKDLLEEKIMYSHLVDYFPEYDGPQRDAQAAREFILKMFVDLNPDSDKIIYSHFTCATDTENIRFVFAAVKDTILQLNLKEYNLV

Sequence of human Gi heterotrimer (human) (P63096 whole entry, looked up, one chain of several): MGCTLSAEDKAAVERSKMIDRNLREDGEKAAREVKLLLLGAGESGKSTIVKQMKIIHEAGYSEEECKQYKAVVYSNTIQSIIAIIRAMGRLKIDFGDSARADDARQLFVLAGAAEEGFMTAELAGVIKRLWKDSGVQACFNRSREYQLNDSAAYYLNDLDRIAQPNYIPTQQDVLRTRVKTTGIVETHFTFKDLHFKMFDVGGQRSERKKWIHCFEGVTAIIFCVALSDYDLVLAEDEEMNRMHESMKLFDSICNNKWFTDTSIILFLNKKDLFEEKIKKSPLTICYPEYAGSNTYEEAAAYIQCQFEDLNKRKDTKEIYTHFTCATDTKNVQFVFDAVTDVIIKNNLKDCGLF

Jumping Spider Rhodopsin-1 (JSR1) reconstituted with 9-cis retinal (receptor)
GTPase-Glo assay: GTP depletion by Gi heterotrimer with JSR1/9-cis retinal, after illumination [1]: 92% | GTPase-Glo assay: GTP depletion by Gi heterotrimer with JSR1/9-cis retinal, without illumination [1]: 57% | GTPase-Glo assay: GTP depletion by Gq heterotrimer with JSR1/9-cis retinal, after illumination [2]: 44% | GTPase-Glo assay: GTP depletion by Gq heterotrimer with JSR1/9-cis retinal, without illumination [2]: 7%

Source: publication PMC11295067
